Like-named read-outs stand apart in the source and are kept apart here. No end group written: not given here. *: point of attachment. DOTA = O=C(O)CN1CCN(CC(=O)O)CCN(CC(=O)*)CCN(CC(=O)O)CC1
Tests used:
[1] = biological target: αvβ5 integrin (soluble / detergent-solubilized) (UniProt P06756 31-1048; P18084 24-799); test: competition with ^125I-echistatin on plate-coated detergent-solubilized integrin
[2] = biological target: αiibβ3 integrin (soluble / detergent-solubilized) (UniProt P08514 32-1039; P05106 27-788); test: as above
[3] = biological target: α5β1 integrin (detergent-solubilized) (UniProt P08648 42-1049; P05556 21-798); test: as above
Chain of α5β1 integrin (detergent-solubilized) (P08648 42-1049, chain 1 of 2): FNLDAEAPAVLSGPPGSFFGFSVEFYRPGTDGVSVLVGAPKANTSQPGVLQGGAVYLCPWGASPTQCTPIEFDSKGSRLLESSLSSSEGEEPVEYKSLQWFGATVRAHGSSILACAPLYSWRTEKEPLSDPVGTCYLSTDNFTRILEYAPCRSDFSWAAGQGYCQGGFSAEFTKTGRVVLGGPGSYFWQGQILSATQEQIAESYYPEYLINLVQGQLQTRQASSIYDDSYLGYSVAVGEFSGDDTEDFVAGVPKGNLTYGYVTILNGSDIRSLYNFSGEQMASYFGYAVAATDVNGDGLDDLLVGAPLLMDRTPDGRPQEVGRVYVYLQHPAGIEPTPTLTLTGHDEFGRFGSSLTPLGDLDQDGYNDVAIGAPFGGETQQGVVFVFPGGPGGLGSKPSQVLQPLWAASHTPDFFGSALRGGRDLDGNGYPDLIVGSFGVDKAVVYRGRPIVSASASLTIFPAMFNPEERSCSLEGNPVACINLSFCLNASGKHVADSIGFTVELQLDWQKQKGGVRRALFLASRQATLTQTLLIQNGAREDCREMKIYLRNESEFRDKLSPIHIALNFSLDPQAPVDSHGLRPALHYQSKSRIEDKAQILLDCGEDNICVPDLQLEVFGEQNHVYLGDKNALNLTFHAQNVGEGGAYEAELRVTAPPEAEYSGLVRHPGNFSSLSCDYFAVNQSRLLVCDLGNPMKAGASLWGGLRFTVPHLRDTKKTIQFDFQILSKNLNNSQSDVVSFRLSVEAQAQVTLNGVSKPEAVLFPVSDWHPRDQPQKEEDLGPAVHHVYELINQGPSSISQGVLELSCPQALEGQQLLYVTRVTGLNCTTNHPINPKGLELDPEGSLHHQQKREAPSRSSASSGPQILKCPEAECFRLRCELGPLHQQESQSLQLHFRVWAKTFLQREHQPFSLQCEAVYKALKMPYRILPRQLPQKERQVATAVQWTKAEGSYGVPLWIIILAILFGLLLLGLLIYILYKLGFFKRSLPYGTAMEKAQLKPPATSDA
Chain of α5β1 integrin (detergent-solubilized) (P05556 21-798, chain 2 of 2): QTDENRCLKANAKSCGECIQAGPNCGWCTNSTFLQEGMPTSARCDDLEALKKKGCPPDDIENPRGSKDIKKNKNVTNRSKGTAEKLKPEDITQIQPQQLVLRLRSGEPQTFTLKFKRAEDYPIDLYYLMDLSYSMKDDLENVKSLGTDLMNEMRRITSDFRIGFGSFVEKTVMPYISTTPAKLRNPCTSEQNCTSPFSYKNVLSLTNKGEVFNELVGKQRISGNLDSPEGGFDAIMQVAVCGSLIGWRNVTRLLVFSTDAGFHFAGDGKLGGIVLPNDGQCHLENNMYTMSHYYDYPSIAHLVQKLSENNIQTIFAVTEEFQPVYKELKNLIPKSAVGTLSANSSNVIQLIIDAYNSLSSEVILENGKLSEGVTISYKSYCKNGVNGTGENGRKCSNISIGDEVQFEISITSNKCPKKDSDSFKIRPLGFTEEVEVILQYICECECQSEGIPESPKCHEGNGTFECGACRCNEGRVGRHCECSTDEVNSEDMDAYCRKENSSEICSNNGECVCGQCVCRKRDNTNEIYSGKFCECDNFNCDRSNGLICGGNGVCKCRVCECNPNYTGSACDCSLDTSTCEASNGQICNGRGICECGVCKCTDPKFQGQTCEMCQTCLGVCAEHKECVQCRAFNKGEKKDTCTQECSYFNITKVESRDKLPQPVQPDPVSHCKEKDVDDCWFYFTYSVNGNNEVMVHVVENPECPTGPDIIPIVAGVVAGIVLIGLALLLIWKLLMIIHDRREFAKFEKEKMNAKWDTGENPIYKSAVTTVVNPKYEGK

[4] = biological target: T1, αvβ3 integrin (soluble / detergent-solubilized) (UniProt P06756 31-1048; P05106 27-788); test: as above
T1 construct: also called integrin αvβ3; soluble αvβ3 integrin
T1 sequence (P06756 31-1048, chain 1 of 2): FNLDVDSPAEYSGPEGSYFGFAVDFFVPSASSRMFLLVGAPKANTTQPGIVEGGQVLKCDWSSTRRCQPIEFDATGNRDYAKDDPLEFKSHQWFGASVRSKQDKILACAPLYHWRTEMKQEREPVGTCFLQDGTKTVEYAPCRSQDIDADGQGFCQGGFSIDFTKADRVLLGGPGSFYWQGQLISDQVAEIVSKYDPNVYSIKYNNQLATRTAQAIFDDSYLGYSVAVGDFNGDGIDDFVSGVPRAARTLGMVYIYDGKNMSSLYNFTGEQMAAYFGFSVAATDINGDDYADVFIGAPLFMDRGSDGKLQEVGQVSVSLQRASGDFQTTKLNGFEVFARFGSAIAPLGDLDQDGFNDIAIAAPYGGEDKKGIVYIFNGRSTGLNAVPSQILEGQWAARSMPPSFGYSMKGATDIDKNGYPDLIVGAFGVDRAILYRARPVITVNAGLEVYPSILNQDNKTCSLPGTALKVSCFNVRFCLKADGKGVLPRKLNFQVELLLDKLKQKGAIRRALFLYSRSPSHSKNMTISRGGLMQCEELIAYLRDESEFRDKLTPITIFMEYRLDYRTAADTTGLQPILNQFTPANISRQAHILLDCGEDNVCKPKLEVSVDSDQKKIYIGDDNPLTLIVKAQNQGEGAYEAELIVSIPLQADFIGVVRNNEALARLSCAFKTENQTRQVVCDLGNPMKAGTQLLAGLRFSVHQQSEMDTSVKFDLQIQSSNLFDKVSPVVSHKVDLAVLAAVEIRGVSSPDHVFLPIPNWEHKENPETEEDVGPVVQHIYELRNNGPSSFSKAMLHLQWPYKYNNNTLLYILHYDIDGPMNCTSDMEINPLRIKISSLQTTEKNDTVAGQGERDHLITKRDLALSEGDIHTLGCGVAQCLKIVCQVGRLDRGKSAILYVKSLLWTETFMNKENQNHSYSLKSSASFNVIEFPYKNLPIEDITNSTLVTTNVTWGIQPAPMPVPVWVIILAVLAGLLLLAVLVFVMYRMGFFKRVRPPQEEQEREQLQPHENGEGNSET
T1 sequence (P05106 27-788, chain 2 of 2): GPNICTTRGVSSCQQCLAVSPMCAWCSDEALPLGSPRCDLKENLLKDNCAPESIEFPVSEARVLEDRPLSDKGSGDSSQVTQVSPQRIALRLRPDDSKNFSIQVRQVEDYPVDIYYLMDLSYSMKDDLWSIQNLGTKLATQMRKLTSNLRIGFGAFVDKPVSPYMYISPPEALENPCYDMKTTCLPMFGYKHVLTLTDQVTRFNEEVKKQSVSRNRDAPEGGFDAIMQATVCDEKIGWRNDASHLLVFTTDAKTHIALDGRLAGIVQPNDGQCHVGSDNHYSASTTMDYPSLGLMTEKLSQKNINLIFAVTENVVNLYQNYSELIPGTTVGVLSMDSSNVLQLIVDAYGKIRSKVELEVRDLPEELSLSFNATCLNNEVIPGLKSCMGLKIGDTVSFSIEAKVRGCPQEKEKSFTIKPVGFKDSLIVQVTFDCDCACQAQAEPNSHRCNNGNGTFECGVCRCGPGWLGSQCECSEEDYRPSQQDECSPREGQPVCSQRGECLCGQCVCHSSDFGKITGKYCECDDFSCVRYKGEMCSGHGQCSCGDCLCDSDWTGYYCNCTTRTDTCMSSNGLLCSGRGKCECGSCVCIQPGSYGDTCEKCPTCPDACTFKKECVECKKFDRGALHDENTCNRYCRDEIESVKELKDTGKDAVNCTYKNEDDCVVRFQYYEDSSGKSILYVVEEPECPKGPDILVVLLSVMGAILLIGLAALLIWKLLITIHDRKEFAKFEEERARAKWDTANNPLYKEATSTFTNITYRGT

[5] = biological target: T1, αvβ3 integrin (soluble / …); test: yeast display flow cytometry estimate; integrin not given
[6] = biological target: T2, αvβ3 integrin on cells (U87MG glioblastoma cells; K562-αvβ3 cells) (UniProt P06756 31-1048; P05106 27-788); test: approximate value quoted with the imaging results; U87MG competition assay presumed
T2 construct: whole, on cells; also called cell surface αvβ3 integrin
T2 sequence (P06756 31-1048, chain 1 of 2): as the sequence (P06756 31-1048, chain 1 of 2) above
T2 sequence (P05106 27-788, chain 2 of 2): as the sequence (P05106 27-788, chain 2 of 2) above

[7] = biological target: T2, αvβ3 integrin on cells (U87MG …); test: competition on U87MG cells against 20 nM recombinant FLAG/His 7C, anti-FLAG flow cytometry
[8] = biological target: T2, αvβ3 integrin on cells (U87MG …); test: competing off ^125I-echistatin, U87MG cells
[9] = biological target: T1, αvβ3 integrin (soluble / …); test: yeast display, flow cytometry, 50 nM integrin, gross estimate
[10] = biological target: T2, αvβ3 integrin on cells (U87MG …); test: competition with ^125I-echistatin on U87MG cells
[11] = biological target: T2, αvβ3 integrin on cells (U87MG …); test: competition with ^125I-echistatin on U87MG cells (also express αvβ5, α5β1); unlabeled peptide
[12] = biological target: T3, αiibβ3 integrin on K562 cells stably transfected with αiibβ3 (UniProt P08514 32-1039; P05106 27-788); test: titration on K562-αiibβ3 cells up to 5 µM, not saturated
T3 construct: whole, on cells; also called K562-αiibβ3; K562-αiiβ3

[13] = biological target: T2, αvβ3 integrin on cells (U87MG …); test: direct equilibrium titration on U87MG cells, anti-His flow cytometry
[14] = biological target: T2, αvβ3 integrin on cells (U87MG …); test: competition of synthetic 7C by recombinant 7C on U87MG cells, performed analogously
[15] = biological target: T2, αvβ3 integrin on cells (U87MG …); test: cell-based or functional assay
[16] = biological target: T2, αvβ3 integrin on cells (U87MG …); test: direct equilibrium titration on K562-αvβ3 cells, anti-His flow cytometry
[17] = biological target: T2, αvβ3 integrin on cells (U87MG …); test: direct equilibrium titration on U87MG cells
[18] = biological target: T2, αvβ3 integrin on cells (U87MG …)
[19] = biological target: T2, αvβ3 integrin on cells (U87MG …); test: cell-based or functional assay; remark: listed apart in the source

Chain of αvβ5 integrin (soluble / detergent-solubilized) (P06756 31-1048, chain 1 of 2): as the sequence (P06756 31-1048, chain 1 of 2) above
Chain of αvβ5 integrin (soluble / detergent-solubilized) (P18084 24-799, chain 2 of 2): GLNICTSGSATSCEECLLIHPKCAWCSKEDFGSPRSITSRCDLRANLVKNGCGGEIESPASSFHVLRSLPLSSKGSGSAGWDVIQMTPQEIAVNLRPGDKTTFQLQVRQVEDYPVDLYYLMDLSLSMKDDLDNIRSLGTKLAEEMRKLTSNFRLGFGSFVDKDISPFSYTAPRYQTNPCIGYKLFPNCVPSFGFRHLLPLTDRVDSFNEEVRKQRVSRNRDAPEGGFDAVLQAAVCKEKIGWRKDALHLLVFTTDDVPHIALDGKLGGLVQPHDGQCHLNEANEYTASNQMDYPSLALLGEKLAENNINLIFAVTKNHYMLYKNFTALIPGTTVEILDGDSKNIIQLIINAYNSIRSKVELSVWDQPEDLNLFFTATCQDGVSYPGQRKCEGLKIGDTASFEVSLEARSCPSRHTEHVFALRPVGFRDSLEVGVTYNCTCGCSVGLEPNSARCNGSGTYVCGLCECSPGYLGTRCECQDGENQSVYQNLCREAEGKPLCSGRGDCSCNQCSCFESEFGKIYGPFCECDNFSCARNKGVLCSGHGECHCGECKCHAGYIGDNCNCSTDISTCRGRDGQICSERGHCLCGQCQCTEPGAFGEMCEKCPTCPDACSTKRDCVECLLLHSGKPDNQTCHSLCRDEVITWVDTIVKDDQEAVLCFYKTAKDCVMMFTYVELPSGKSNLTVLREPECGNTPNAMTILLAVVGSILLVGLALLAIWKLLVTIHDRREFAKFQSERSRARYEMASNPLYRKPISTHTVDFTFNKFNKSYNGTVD

B1: DOTA-conjugated FN-RDG2 (peptide)
chain: {DOTA}-GCVTGRDGSPASSCSQDSDCLAGCVCGPNGFCG
modifications: also: cystine-knot disulfides, pairing not given here
binding result [1]: no binding
binding result [2]: no binding
binding result [3]: no binding
binding result [4]: no binding

B2: RGD-EETI #3 (yeast-displayed) (peptide)
chain: GCVTGRGDSPASSCKQDSDCLAGCVCGPNGFCG
notes: also called FN-RGD; RDG-EETI #3
Kd [5]: 100 to 200 nM

B3: DOTA-conjugated FN-RGD2 (peptide)
chain: {DOTA}-GCVTGRGDSPASSCSQDSDCLAGCVCGPNGFCG
modifications: cysteine pairing not given here
IC50 [6]: ~400 nM

B4: synthetic AgRP peptide 7C (without epitope tags) (peptide)
chain: GCVRLHESCLGQQVPCCDPAATCYCYGRGDNDLRCYCR
notes: also called AgRP Clone 7C; Agouti peptide 7C
IC50 [7]: 22 nM
IC50 [8]: 23 nM

B5: 2.5D (yeast-displayed EETI-based variant) (peptide)
chain: GCPQGRGDWAPTSCKQDSDCRAGCVCGPNGFCG
Kd [9]: ~50 nM

B6: Miniprotein 2.5D (synthetic, soluble) (peptide)
chain: GCPQGRGDWAPTSCSQDSDCRAGCVCGPNGFCG
notes: also called knottin peptide 2.5D; RGD-miniprotein 2.5D
IC50 [10]: 19 nM
IC50 [11]: 16 nM

B7: recombinant AgRP peptide 7C (FLAG and hexahistidine tagged) (peptide)
chain: DYKDDDDKGCVRLHESCLGQQVPCCDPAATCYCYGRGDNDLRCYCRHHHHHH
Kd [12]: > 100 nM
Kd [13]: 1.8 nM
IC50 [14]: 23 nM
adhesion (IC50; nM) of K562-αvβ3 cells to vitronectin-coated wells [15]: 12 nM
Kd [16]: 2.4 nM

B8: recombinant engineered AgRP peptide 7A (FLAG and hexahistidine tagged) (peptide)
chain: DYKDDDDKGCVRLHESCLGQQVPCCDPAATCYCSGRGDNDLVCYCRHHHHHH
notes: also called 7A (5E); 5E
Kd [12]: > 100 nM
Kd [13]: 0.78 nM
fold improvement over the worst binder, 6C [17]: 17 fold
adhesion (IC50; nM) of K562-αvβ3 cells to vitronectin-coated wells [15]: 61 nM
Kd [16]: 0.89 nM

B9: DOTA-conjugated knottin peptide 2.5F (peptide)
chain: {DOTA}-GCPRPRGDNPPLTCSQDSDCLAGCVCGPNGFCG
modifications: cysteine pairing not given here
IC50 [6]: ~20 nM

B10: FN-RDG (EETI-based polypeptide with a scrambled RDG sequence, negative control) (peptide)
chain: GCVTGRDGSPASSCSQDSDCLAGCVCGPNGFCG
notes: Inferred; also called scrambled FN-RDG; FN-RDG2
binding result [10]: no binding
binding result [1]: no binding (tested: 50 nM)
binding result [2]: no binding (tested: 50 nM)
binding result [3]: no binding (tested: 50 nM)
binding result [4]: no binding (tested: 50 nM)

B11: echistatin (unlabeled) (ligand)
chain: QCESGPCCRNCKFLKEGTICKRARGDDMDDYCNGKTCDCPRNPHKGPAT
modifications: ends and bridges not checked; cysteine pairing not given here
IC50 [18]: 4.9 nM
adhesion (IC50; nM) of K562-αvβ3 cells to vitronectin-coated wells [15]: 3.2 nM
U87MG cell adhesion to vitronectin, IC50 [19]: 5.8 nM

B12: DOTA-conjugated knottin peptide 2.5D (peptide)
chain: {DOTA}-GCPQGRGDWAPTSCSQDSDCRAGCVCGPNGFCG
modifications: cysteine pairing not given here
notes: also called Cu-DOTA-knottin 2.5D
IC50 [6]: ~20 nM

B13: RGD-EETI #2 (yeast-displayed) (peptide)
chain: GCTGRGDSPASSKCKQDSDCLAGCVCGPNGFCG
affinity relative to RGD-EETI #3 [5]: ~0.5 fold

Reference: patent US20210023171A1 (published 2021)
